Patent US5777073
Like-named read-outs stand apart in the source and are kept apart here.

Columns and labels:
[1] = target: CRF receptors on rat anterior pituitary cells (rat)
[2] = target: CRF receptors on rat anterior pituitary cells (rat); remark: listed apart in the source
[3] = target: CRF receptors on rat anterior pituitary cells (rat); remark: listed apart in the source
[4] = target: CRF receptors on rat anterior pituitary cells (rat); remark: listed apart in the source
[5] = target: CRF receptors on rat anterior pituitary cells (rat); remark: listed apart in the source
[6] = target: CRF receptors on rat anterior pituitary cells (rat); remark: listed apart in the source
[7] = target: CRF receptors on rat anterior pituitary cells (rat); remark: listed apart in the source
[8] = target: CRF receptors on rat anterior pituitary cells (rat); remark: listed apart in the source
[9] = target: CRF receptors on rat anterior pituitary cells (rat); remark: listed apart in the source

(cyclo 28-31) D-Phe^12, Nle^21,38, Glu^28, Lys^31 !-r/hCRF(12-41) (peptide)
in vitro biopotency: inhibition of ACTH secretion (times the Standard) [1]: 3.12

(cyclo 28-32) D-Phe^12, Nle^21,38, Glu^28, D-Ala^31, Lys^32 !-r/hCRF(12-41) (peptide)
in vitro biopotency: inhibition of ACTH secretion (times the Standard) [2]: 4.91

(cyclo 28-32) D-Phe^12, Nle^21,38, Glu^28, D-Gln^30, Lys^32 !-r/hCRF(12-41) (peptide)
in vitro biopotency: inhibition of ACTH secretion (times the Standard) [3]: 3.69

(cyclo 28-32) D-Phe^12, Nle^21,38, Glu^28, Lys^32 !-r/hCRF(12-41) (peptide)
in vitro biopotency: inhibition of ACTH secretion (times the Standard) [4]: 7.3

(cyclo 29-32) D-Phe^12, Nle^21,38, Glu^29, Lys^32 -r/hCRF(12-41) (peptide)
in vitro biopotency: inhibition of ACTH secretion (times the Standard) [5]: 3.38

(cyclo 29-33) D-Phe^12, Nle^21,38, Glu^29, D-His^32, Lys^33 -r/hCRF(12-41) (peptide)
in vitro biopotency: inhibition of ACTH secretion (times the Standard) [6]: 26

(cyclo 29-33) D-Phe^12, Nle^21,38, Glu^29, Lys^33 -r/hCRF(12-41) (peptide)
in vitro biopotency: inhibition of ACTH secretion (times the Standard) [7]: 7.15

(cyclo 30-33) Ac-Asp^9, D-Phe^12, CML^18,27, Nle^21,38, Glu^30, Lys^33 -r/hCRF(9-41) (peptide)
in vitro biopotency: inhibition of ACTH secretion (times the Standard) [8]: 13

(cyclo 30-33) Ac-Asp^9, D-Phe^12, Nle^21, CML^27,37, Glu^30, Lys^33 -r/hCRF(9-41) (peptide)
in vitro biopotency: inhibition of ACTH secretion (times the Standard) [9]: 1.4
